Data on two substances can be found in US20080050380A1.

Test [1] concerns the target human TANGO 268 (glycoprotein VI, GPVI), full length (human) (UniProt Q9HCN6). As to the kind of experiment: flow cytometry on washed human platelets. A general note: In flow cytometry, cells or beads pass a laser one at a time.
Test [2] deals with baboon GPVI on baboon platelets (baboon). In words: flow cytometry on washed baboon platelets.
Test [3] concerns the target soluble human GPVI-Fc (the extracellular domain of GPVI fused to Fc) (human) (UniProt Q9HCN6). In words: SPR (BIAcore), GPVI-Fc coupled to the chip, bivalent model. In general terms: Surface plasmon resonance follows binding to a sensor surface in real time, without labels.
For test [4] the target is unchanged. As to the kind of experiment: ELISA, 5 nM GPVI-Fc with 10 µg/ml antibody on collagen-coated wells; collagen is the blocked partner. (ELISA stands for enzyme-linked immunosorbent assay.)
The target is the same in test [5]. As to the kind of experiment: 125I-convulxin binding to GPVI-Fc captured on mAb 1P10.2, 10 µg/ml antibody; convulxin is the blocked partner.
The target in the next test is collagen type I. In words: cell-based or functional assay.

soluble human GPVI-Fc (the extracellular domain of GPVI fused to Fc) (human), sequence (Q9HCN6 other isoform, or with tags, fused parts or gaps): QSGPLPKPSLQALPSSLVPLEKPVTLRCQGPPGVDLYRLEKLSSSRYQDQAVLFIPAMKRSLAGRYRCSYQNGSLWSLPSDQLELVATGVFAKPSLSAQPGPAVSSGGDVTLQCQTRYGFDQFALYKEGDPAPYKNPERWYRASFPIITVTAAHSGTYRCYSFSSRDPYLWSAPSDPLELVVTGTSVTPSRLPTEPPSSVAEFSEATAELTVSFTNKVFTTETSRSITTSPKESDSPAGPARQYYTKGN
human TANGO 268 (glycoprotein VI, GPVI), full length (human), sequence (Q9HCN6 other isoform, or with tags, fused parts or gaps): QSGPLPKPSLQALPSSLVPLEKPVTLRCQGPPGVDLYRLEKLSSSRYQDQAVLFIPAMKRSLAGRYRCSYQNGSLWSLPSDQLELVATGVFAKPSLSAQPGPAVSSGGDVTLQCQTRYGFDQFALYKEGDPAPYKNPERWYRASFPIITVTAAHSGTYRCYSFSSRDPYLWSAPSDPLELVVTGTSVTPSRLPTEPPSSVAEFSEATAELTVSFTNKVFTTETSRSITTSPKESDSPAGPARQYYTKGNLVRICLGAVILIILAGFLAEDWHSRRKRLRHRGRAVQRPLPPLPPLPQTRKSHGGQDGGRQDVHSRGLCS

In test [1], “mouse monoclonal antibody produced by hybridoma cell line 9012.2” returned a Human fluorescence intensity of 14 and a Human platelets % positive of 21%. Also, in test [2], the Baboon fluorescence intensity was 18 and the Baboon platelets % positive amounted to 33.8%. The Kd in test [3] was 18 nM. The substance further showed a % of Inhibition of collagen binding of hrGPVI in test [4] of 58%. In addition, in test [5], the % of Inhibition of convulxin binding of hrGPVI came out at 75%.

On to “recombinant human soluble GPVI:Fc fusion protein (rhusGPVI:Fc) (from UniProt Q9HCN6 21-269)”, for which the concentration of rhusGPVI:Fc needed to inhibit collagen-induced activation, against that needed for Cvx with collagen type I stood at 10 fold.
